Laboratory results from publication PMC12207370, “Macrocyclic Peptide Probes for Immunomodulatory Protein CD59: Potent Modulators of Bacterial Toxin Activity and Antibody‐Dependent Cytotoxicity” (Angewandte Chemie (International Ed. in English), 2025).

Molecular target: T1, biotinylated CD59 (Homo sapiens, UniProt P13987)
T1 construct: Recombinant soluble human CD59 with an additional C-terminal cysteine residue
T1 sequence (P13987 26-102 limits assumed): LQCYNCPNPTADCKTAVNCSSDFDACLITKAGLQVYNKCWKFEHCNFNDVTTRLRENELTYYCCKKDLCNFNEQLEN
Assay: mRNA-display cyclic peptide screen against CD59-biotin, NGS abundance after 6th selection round
Details: for Percentage Seq I: counts normalised by total counts of sample Seq I; for Percentage Seq I / Percentage Seq II: percentage of the pool; for Percentage Seq I / Percentage Seq II / Percentage Average / Percentage of the pool, averaged across the two sequencing samples / Percentage of the pool, Seq I / Percentage of the pool, Seq II: sheet R6; for Percentage Seq II: counts normalised by total counts of sample Seq II; for Percentage Average: percentage of the pool averaged across the two sequencing samples; for Counts Seq I / Counts Seq II: raw NGS counts of peptide sequence; for Counts Seq I: sequencing sample Seq I; for Counts Seq I / Counts Seq II / Counts (raw counts for peptide sequence), Seq I / Counts (raw counts for peptide sequence), Seq II: sheet R6 (6th selection round); for Counts Seq II: sequencing sample Seq II; for Counts (raw counts for peptide sequence), Seq I: NGS sample Seq I; for Counts (raw counts for peptide sequence), Seq II: NGS sample Seq II; for Percentage of the pool, averaged across the two sequencing samples: average of Seq I and Seq II; for Percentage of the pool, Seq I: counts normalised by total counts of NGS sample Seq I; for Percentage of the pool, Seq II: counts normalised by total counts of NGS sample Seq II
Outline: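 Peptide–mRNA fusions were made by in vitro translation with a customised PURE express kit. The kit lacked release factor 1 and methionine and was supplemented with […] initiator tRNA carrying N-chloroacetyl-d-tyrosine. Thioether macrocycles were formed, then enriched and amplified over iterative rounds on CD59-biotin immobilised on streptavidin beads. NGS read counts per sequence were recorded after the 6th selection round.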

Row | Sequence | Percentage Seq I [%] | Percentage Seq II [%] | Percentage Average [%] | Counts Seq I | Counts Seq II | Counts (raw counts for peptide sequence), Seq I | Counts (raw counts for peptide sequence), Seq II | Percentage of the pool, averaged across the two sequencing samples [%] | Percentage of the pool, Seq I [%] | Percentage of the pool, Seq II [%]
1 | FVRGDPYSVLG | 0.057 | 0.049 | 0.053 | 251 | 21 | – | – | – | – | –
2 | FVRGDQYSVLG | 0.056 | 0.081 | 0.069 | 247 | 35 | – | – | – | – | –
3 | FVRGDRYSVLG | 0.045 | 0.039 | 0.042 | 198 | 17 | – | – | – | – | –
4 | FVRGGLYSVLG | 0.020 | 0.019 | 0.019 | 86 | 8 | – | – | – | – | –
5 | FVRGNRYSVLG | – | – | – | – | – | 64 | 5 | 0.013 | 0.015 | 0.012
6 | FVRGNSTSVLF | 0.020 | 0.019 | 0.019 | 88 | 8 | – | – | – | – | –
7 | FVSGNRDHTRG | – | – | – | – | – | 51 | 5 | 0.012 | 0.012 | 0.012
8 | FVSGNSRFRRE | 0.062 | 0.070 | 0.066 | 270 | 30 | – | – | – | – | –
9 | FVTGDRDHTRG | 0.127 | 0.121 | 0.124 | 554 | 52 | – | – | – | – | –
10 | FVTGNRDHARG | 0.029 | 0.035 | 0.032 | 126 | 15 | – | – | – | – | –
11 | FVTGNRDHTHG | – | – | – | – | – | 45 | 5 | 0.011 | 0.010 | 0.012
12 | FVTGNRDHTRE | – | – | – | – | – | 33 | 7 | 0.012 | 0.00754 | 0.016
13 | FVTGNRDHTRG | 7.311 | 7.094 | 7.203 | 31986 | 3057 | – | – | – | – | –
14 | FVTGNRDHTRV | – | – | – | – | – | 35 | 5 | 0.010 | 0.008 | 0.012
15 | FVTGNRDHTSG | – | – | – | – | – | 60 | 4 | 0.011 | 0.014 | 0.009
16 | FVTGNRDNTRG | – | – | – | – | – | 80 | 6 | 0.016 | 0.018 | 0.014
17 | FVTGNRDRTRG | 0.019 | 0.026 | 0.022 | 81 | 11 | – | – | – | – | –
18 | FVTGNRDYTRG | 0.050 | 0.063 | 0.056 | 220 | 27 | – | – | – | – | –
19 | FVTGNREHTRG | 0.025 | 0.035 | 0.030 | 110 | 15 | – | – | – | – | –
20 | FVTGNRGHTRG | 0.024 | 0.016 | 0.020 | 105 | 7 | – | – | – | – | –
21 | FVTGNRNHTRG | 0.032 | 0.028 | 0.030 | 142 | 12 | – | – | – | – | –
22 | FVTGNSDHTRG | – | – | – | – | – | 52 | 4 | 0.011 | 0.012 | 0.009
23 | FVTGSRDHTRG | 0.074 | 0.053 | 0.063 | 322 | 23 | – | – | – | – | –

Row | Sequence | Percentage Seq I [%] | Percentage Seq II [%] | Percentage Average [%] | Counts Seq I | Counts Seq II | Counts (raw counts for peptide sequence), Seq I | Counts (raw counts for peptide sequence), Seq II | Percentage of the pool, averaged across the two sequencing samples [%] | Percentage of the pool, Seq I [%] | Percentage of the pool, Seq II [%]
24 | FVTSNRDHTRG | – | – | – | – | – | 23 | 6 | 0.010 | 0.005 | 0.014
25 | GPRNECHSQFQN | 0.092 | 0.086 | 0.089 | 401 | 37 | – | – | – | – | –
26 | GRLNECHAIWP | 0.112 | 0.104 | 0.108 | 488 | 45 | – | – | – | – | –
27 | GRLNECHVIRP | – | – | – | – | – | 43 | 7 | 0.013 | 0.010 | 0.016
28 | GRLNECHVIWP | 0.317 | 0.302 | 0.310 | 1389 | 130 | – | – | – | – | –
29 | GRLNECHVIWS | 0.015 | 0.037 | 0.026 | 65 | 16 | – | – | – | – | –
30 | GRLNECHVTWP | – | – | – | – | – | 43 | 9 | 0.015 | 0.010 | 0.021
31 | GRRNECLSRTS | – | – | – | – | – | 68 | 3 | 0.011 | 0.016 | 0.007
32 | GRVRTCPVIV | – | – | – | – | – | 65 | 5 | 0.013 | 0.015 | 0.012
33 | GRYNECHFITS | – | – | – | – | – | 59 | 6 | 0.014 | 0.013 | 0.014
34 | GYKNECHSFNW | – | – | – | – | – | 40 | 6 | 0.012 | 0.009 | 0.014
35 | GYLNECHALYTR | – | – | – | – | – | 63 | 9 | 0.018 | 0.014 | 0.021
36 | GYLNECHTLYTL | 0.024 | 0.028 | 0.026 | 105 | 12 | – | – | – | – | –
37 | GYLNECHTLYTQ | 0.034 | 0.051 | 0.043 | 149 | 22 | – | – | – | – | –
38 | GYLNECHTLYTR | 0.629 | 0.645 | 0.637 | 2754 | 278 | – | – | – | – | –
39 | GYLNECWYGLS | 0.101 | 0.081 | 0.091 | 441 | 35 | – | – | – | – | –
40 | HAFGNRSFTRG | – | – | – | – | – | 82 | 5 | 0.015 | 0.019 | 0.012
41 | HAFGSRDIAYY | – | – | – | – | – | 52 | 5 | 0.012 | 0.012 | 0.012
42 | HAFGSRDITYY | 0.246 | 0.272 | 0.259 | 1078 | 117 | – | – | – | – | –
43 | HCRVRGSRNYT | – | – | – | – | – | 38 | 6 | 0.011 | 0.009 | 0.014
44 | HCWARGSRNYT | 0.041 | 0.035 | 0.038 | 180 | 15 | – | – | – | – | –
45 | HCWVRGGRNYT | 0.024 | 0.014 | 0.019 | 104 | 6 | – | – | – | – | –
